Measurements: US20090226434A1

What was measured:
[1] = target: FcγRIIIa (CD16) on Natural Killer (NK) cells (UniProt P08637); assay: FACS on NK cells (CD56+) in PBMCs, antibody 20 µg/ml, FITC anti-human IgG (Fc) detection
[2] = target: wildtype anti-CCR5 antibody (WT Ab, 8% afucosylated); assay: SPR solution competition: soluble CD16a (0-1000 nM) inhibits binding of 10 nM antibody to immobilized His-CD16a
[3] = target: afucosylated anti-CCR5 antibody (afucosylated Ab); assay: as above
[4] = target: Positive Control (Table 3); assay: SPR solution competition: soluble CD16a (0-1000 nM) inhibits binding of 10 nM analyte to immobilized His-CD16a

Sequence of UniProt P08637 (P08637 17-254 limits assumed): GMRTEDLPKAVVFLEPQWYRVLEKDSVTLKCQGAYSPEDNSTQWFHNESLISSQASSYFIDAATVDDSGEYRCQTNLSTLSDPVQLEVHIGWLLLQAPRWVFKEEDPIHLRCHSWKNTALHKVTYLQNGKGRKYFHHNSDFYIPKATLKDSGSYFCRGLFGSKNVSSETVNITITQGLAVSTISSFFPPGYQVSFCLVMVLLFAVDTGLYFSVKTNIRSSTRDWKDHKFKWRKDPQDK

Row | Substance | Bmax compared to 100% Bmax for human IgG1 [1] [%] | IC50 [2] [nM] | IC50 [3] [nM] | IC50 [4] [nM]
1 | human IgG4 (The Binding Site) (antibody) | < 30 | – | – | –
2 | soluble CD16a (from UniProt P08637 17-208) (receptor) | – | 14 | 9 | 10
